According to PMC5647379, “Calmodulin confers calcium sensitivity to the stability of the distal intracellular assembly domain of Kv7.2 channels” (Scientific Reports, 2017):

Legend:
[1] = biological target: T1, dansylated calmodulin (D-CaM, 5-(dimethylamino)naphtalene-1-sulfonyl-calmodulin) (rat, UniProt P0DP29 1-149, dansyl (5-(dimethylamino)naphtalene-1-sulfonyl) label, residue not stated); assay: other fluorescence titration; as a2 but with an excess of free Ca2+ (3.9 µM; 9.63 mM Ca2+ added to the Fluorescence buffer); apparent affinity (EC50); conditions: both partners purified
[2] = biological target: T1, dansylated calmodulin (D-CaM, …); assay: other fluorescence titration; D-CaM 12.5 nM in the cuvette, increasing concentrations of GST-fusion protein; no Ca2+ (EGTA 10 mM); Tris-HCl 25 mM pH 7.4, KCl 120 mM, NaCl 5 mM, MgCl2 2 mM; 25 °C; apparent affinity (EC50 of a Hill fit to the fluorescence enhancement); conditions: both partners purified

EC50 [1]: 27.1 nM
EC50 [2]: 11 nM
B1: GST-Kv7.2 AB (helices AB fused to GST) (domain or fragment)
chain: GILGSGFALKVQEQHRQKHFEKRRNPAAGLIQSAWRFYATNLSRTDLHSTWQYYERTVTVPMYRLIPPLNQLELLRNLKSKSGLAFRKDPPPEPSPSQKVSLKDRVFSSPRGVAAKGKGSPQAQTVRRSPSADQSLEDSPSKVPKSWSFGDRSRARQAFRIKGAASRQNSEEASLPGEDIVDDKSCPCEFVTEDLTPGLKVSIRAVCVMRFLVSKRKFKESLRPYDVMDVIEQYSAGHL
